PMC5551698 (The Journal of Cell Biology, 2017)

Target: His-CRMP-1 (human CRMP-1) (human, UniProt Q14194 1-572)
Test: pull-down

Sequence of His-CRMP-1 (human CRMP-1) (Q14194 whole entry): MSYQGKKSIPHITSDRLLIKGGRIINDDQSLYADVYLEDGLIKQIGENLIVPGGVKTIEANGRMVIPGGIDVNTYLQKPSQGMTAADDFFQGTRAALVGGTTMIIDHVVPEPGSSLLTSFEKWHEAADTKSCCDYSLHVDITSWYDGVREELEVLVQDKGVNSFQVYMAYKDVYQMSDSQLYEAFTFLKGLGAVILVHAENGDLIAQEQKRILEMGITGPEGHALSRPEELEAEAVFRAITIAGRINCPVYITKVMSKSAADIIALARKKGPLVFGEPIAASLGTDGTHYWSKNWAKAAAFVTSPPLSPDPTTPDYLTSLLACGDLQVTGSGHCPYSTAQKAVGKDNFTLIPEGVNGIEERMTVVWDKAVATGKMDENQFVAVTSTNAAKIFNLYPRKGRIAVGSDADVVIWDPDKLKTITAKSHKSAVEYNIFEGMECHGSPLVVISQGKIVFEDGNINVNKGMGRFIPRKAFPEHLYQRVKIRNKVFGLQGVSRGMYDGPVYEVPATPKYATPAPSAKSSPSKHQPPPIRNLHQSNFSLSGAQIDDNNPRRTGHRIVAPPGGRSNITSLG

- Kd: 2000 nM
B1: MBP-EVL (human EVL, full length) (natural protein, UniProt Q9UI08 1-416, looked up)
chain: MSEQSICQARASVMVYDDTSKKWVPIKPGQQGFSRINIYHNTASNTFRVVGVKLQDQQVVINYSIVKGLKYNQATPTFHQWRDARQVYGLNFASKEEATTFSNAMLFALNIMNSQEGGPSSQRQVQNGPSPDEMDIQRRQVMEQHQQQRQESLERRTSATGPILPPGHPSSAASAPVSCSGPPPPPPPPVPPPPTGATPPPPPPLPAGGAQGSSHDESSMSGLAAAIAGAKLRRVQRPEDASGGSSPSGTSKSDANRASSGGGGGGLMEEMNKLLAKRRKAASQSDKPAEKKEDESQMEDPSTSPSPGTRAASQPPNSSEAGRKPWERSNSVEKPVSSILSRTPSVAKSPEAKSPLQSQPHSRMKPAGSVNDMALDAFDLDRMKQEILEEVVRELHKVKEEIIDAIRQELSGISTT
